In patent US9422369 (QUEEN MARY AND WESTFIELD COLLEGE, dated 2016):
Ends that are not written are not given here.

Target: T1, peptide antigen EDGIKRIQDDC-biotin (from AT1-receptor N-terminal region) (rat (sequence also found in human and …))
T1 construct: Coated on Maxisorp plates for the ELISA; also called antigenic peptide; biotinylated peptide antigen
T1 peptide: EDGIKRIQDDC-biotin
Test: ELISA, coated EDGIKRIQDDC-biotin, anti-His-tag HRP detection; reference is the murine scFv
Description: IgM for comparative binding studies was purified as previously described for cellular invasion studies. The extinction coefficient used for IgM was 1.18 (Johnstone A, Thorpe R. *Immunochemistry in practice*. 2nd ed. Oxford: Blackwell Scientific Publications (1987)). Testing of Antigen Binding Using ELISA Enzyme-linked immunosorbant assays (ELISAs) were carried out in Maxisorp 96-well plates coated with Peptide antigen […]-biotin (SEQ ID NO: 14) (2-8 ug/ml in carbonate buffer pH 9.6) overnight at 4 or 37 C. The coated wells were blocked using 1% alkaline soluble casein (Blocking buffer) for 1 h at RT, then washed three times with PBS containing 0.1% v/v Tween 20. ScFv samples diluted between 1:1 to 1:100 in PBS-T were added and incubated for 1 h at RT before washing as before. A secondary HRP-conjugated anti-His-Tag antibody was then added (diluted 1:1000 in blocking buffer) for 1 h at RT. Wells were then washed three times in PBS-T then twice with PBS (without Tween 20). 100 µl of TMB substrate solution was added and colour was allowed to develop for 30 min, at which time 100 µl of 2M sulphuric acid was added to stop the reaction. Absorbance at 450 nm was read on a plate reading spectrophotometer. Protein concentrations were determined using an Eppendorf Biophotometer reading at 280 nm and using an extinction coefficient for the scFv of 1.7 as above.

B1: humanised scFv variant HuCY, His-tagged (scFv, V domains shown)
VH: QVQLVQSGPELVKPGASVKISCKASGYSFTGYNMNWVKQAPGKSLEWIGNIDPYYGGTTYNQKFKGKATLTVDKSSSTAYMQLKSLRSEDTAVYYCAREVDYWGQGTTVTVSS
notes: Resurfaced variant of 12D, changed only in the framework regions; not shown: C-terminal His-tag from the expression vector
  fold binding in ELISA against the murine scFv: 5 fold
